# Laboratory results as given in the nanobody polyreactivity screen of Harvey et al. (2022).
# Test: yeast display, Sf9 membrane polyspecificity reagent, FACS + sequencing; frameworks hold sequencing errors
# In short: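 After 36–48 hours of galactose induction, yeast (Saccharomyces cerevisiae BJ5465) displaying a synthetic nanobody library were stained at 4 °C for 1 hour with 10% biotinylated, detergent-solubilized Sf9 membrane reagent. Streptavidin microbeads enriched the stained cells before FACS sorting into low and high (top ~1%) gates on anti-HA and streptavidin fluorescence. Each clone's polyreactivity label reflects its gate of origin.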
row,Sequence,polyreactivity (PSR sort gate)
1,QVQLVESGGGLVQAGGSLRLSCAASGFIFVAYALGWYRPAPGKERELVAAITSSGVTTYYADSVKGRFTISRDNAKNTVYLQMTSLKQDDTAVYFCAAYRRRSPFDYWGQGTQVTVSS,high polyreactivity
2,QVQLVESGGGLVQAGGSLRLSCAASGFIFVNYAMGWNRQAPGKERELVAAISARGGSTNYADSVKGRFTISRDNAKNTVYLQMNSLKPEDTAVYYCAARYTARRQSYGYWGQGTQVTVSS,high polyreactivity
3,QVQLVESGGGLVQAGGSLRLSCAASGFIFVRNAMGWYRQAPGKEREFVAAITRSGGSTYYADSVKGRFTISRDNAKNTVYLQMNCLKPEDTAVYYCAVLYHSRDRYTYRDEDYWGQGTQVTVSS,low polyreactivity
4,QVQLVESGGGLVQAGGSLRLSCAASGFIFVRYAMGWYRQAPGKERELVAAISWRGGSTYYADSVKGRFTISRDNAKNTVYLQMNSLKPEDTAVYYCAAVTWVHRYSRFHPFVAFDYWGQGTQVTVSS,high polyreactivity
5,QVQLVESGGGLVQAGGSLRLSCAASGFIFVTNAMGWYRQAPGKERELVAAINWSGGRTYYADSVKGRFTISRDNAKNTVYLQMNSLKPEDTAVYYCAADPYARLGEYGYCGQGTQVTVSS,low polyreactivity
6,QVQLVESGGGLVQAGGSLRLSCAASGFIFWDNAMGWYRQAPGKERELVAAISRNGGRTYYADSVKGRFTISRDNAKNTVYLQMNSLKPEDTAVYYCAAYTARSYGMDYWGQGTQVTVSS,high polyreactivity
7,QVQLVESGGGLVQAGGSLRLSCAASGFIFWDYAMGCYRQAPGKERELVAAISDSGGDTYYADSVKGRFTLSRDNAKNTVYLQMNSLKPEDPAVYYRAADVELWVFRGQQYDYWGQGTQETVSS,low polyreactivity
8,QVQLVESGGGLVQAGGSLRLSCAASGFIFWGNTMGWYRQAPGKERELVAAISSSGGRTYYADSVKGRFTISRDNAKNTVYLQMNSLKPEDTAVYYCAKVRRSDYDSDYWGQGTQVTVSS,high polyreactivity
9,QVQLVESGGGLVQAGGSLRLSCAASGFIFWGNTMVWYRQAPGKERELVAAITYSGGSTYYADSVKGRFTISRDNAKNTVYLQMNSLKPEDTAVYYCNKVFVYRGDYWGQGSQVTVSS,high polyreactivity
10,QVQLVESGGGLVQAGGSLRLSCAASGFIFWHYAMGWYRQAPGKERELVAAISWSGGRTYYADSVKGRFTISRDNAKNTVYLQMNSLKPEDTAVYYCARSKRVTPYEYDYWGQGTQVTVSS,high polyreactivity
11,QVQLVESGGGLVQAGGSLRLSCAASGFIFWHYTMGWYRQAPGKERELVAASTWTGGSTYYADSVKGRFTISRDNEKNTVYLQMNSLKPEETAVYYCNADYPGEGITYGYWGQGTQVTLSS,low polyreactivity
12,QVQLVESGGGLVQAGGSLRLSCAASGFIFWPYAMGWYRQAPGKERELVAAITRSGGSTYYADSVKGRFTISRDNAKNTVYLQMNSLKPEDTAVYYCAARKRGTFTYDYWGQGTQVTVSS,high polyreactivity
13,QVQLVESGGGLVQAGGSLRLSCAASGFIFWQNAMGWSRQAPGKEREWVADISWSGGGSTYYADSVKGRFTISRDNAKNTVYLQMNSLKPADTALYYCAASQVYSYYGTYYSAYDYWGQGTQVTVSS,low polyreactivity
14,QVQLVESGGGLVQAGGSLRLSCAASGFIFWYNAMGWYRQAPGKERELVAAITTAGSTNYADSVKGRFTISRDNAKNTVYLQMNSLKPEDTAVYYCAAVSSYWGQGTQVTVSS,low polyreactivity
15,QVQLVESGGGLVQAGGSLRLSCAASGFIFWYYAMGWYRQSPGTERELVAGITSGGSTNYADSVKGRFTISRDNAKNTVYLQMNSLKPEDTAVYYCAAAPYGGFGRGYDYWGQGTQVTVSS,high polyreactivity
16,QVQLVESGGGLVQAGGSLRLSCAASGFIFYAYAMGWYRQAPGKEREFVAAISARGGNTYYADSVKGRFTISRDNAKNSVYLQMNSLKPEDTAVYYCAIYGGYYYLSGYYYWGQGTQVTVSS,high polyreactivity
17,QVQLVESGGGLVQAGGSLRLSCAASGFIFYDYAMGWYRQAPGKERELVAVITSGGSTYYADSVKGRFTISRDNAKNTVYLQMNSLKPEDTAVYYCNADWVFTWYDYPNDTYDYWGQGTQVTVSS,low polyreactivity
18,QVQLVESGGGLVQAGGSLRLSCAASGFIFYDYSMAWYRQAPGKEREFVAAISWSGGRTYYADSVKGRFTISRDNAKNTVYLQMNSLKPVDTAVYYCAVDAYRYWWTTYVSDFDYWGQGTQVTVSS,high polyreactivity
19,QVQLVESGGGLVQAGGSLRLSCAASGFIFYFYAMGWYRQAPGKERELVAAISSGGSTNYADSVKGRFTISRDNAQNTVYIQMNSQKPEDTAVYYCNKSGYSKYFLNDYTYWGQGTQVTVSS,low polyreactivity
20,QVQLVESGGGLVQAGGSLRLSCAASGFIFYFYAMGWYRQAPGKERELVAAISWSGGSTYYADSVKGRFTISRDNAKNTDYLQMNSLKPEDTAVYYCAAQSWSGDSTFWRYDYWGQGTQVTVSS,low polyreactivity
21,QVQLVESGGGLVQAGGSLRLSCAASGFIFYFYAMGWYRQAPWKERELVAAISSGGSTNYADSVKGRFTISRDNAKNTVYLQMISLKPEDTAVYYCARKTSSYFGHYYYWGQGTQVTVSS,low polyreactivity
22,QVQLVESGGGLVQAGGSLRLSCAASGFIFYFYTMGWYRQAPGKERELVAGITWLDGSTYYADSVKGRFTISRDNAKNTVYLQMNSLKPEDTAVYYCAVDYDLVVSPYYYWGQGTQVTVSS,low polyreactivity

row,Sequence,polyreactivity (PSR sort gate)
1,QVQLVESGGGLVQAGGSLRLSCAASGFIFYGYTMGWYRQAPGKERELVAAITRGGSTYYADSVKGRFTISRDNAKNTVYLQMNSLKPEDTAVYYCAALTWDGMDYWGQGTQVTVSS,high polyreactivity
2,QVQLVESGGGLVQAGGSLRLSCAASGFIFYHNAMGWYRQAPGKERELVAAISQSGGRTYYADSVKGRFTISRDNAKNTVYLQMNSLKPEDTAGYYCAKRTRVYHPTYDYWGQGTQVTVSS,high polyreactivity
3,QVQLVESGGGLVQAGGSLRLSCAASGFIFYHYAMGWYRQAPGKARELVAAISGRGGSTYYADSVKGRFTISRDNAKNTVYLQMNSLKPEDTAVYYCATDRQRADYYWGQGTQVTVSS,high polyreactivity
4,QVQLVESGGGLVQAGGSLRLSCAASGFIFYHYVLGWYRQAPGKERELVAAITRGGSTYADSVKGRFTISRDNAKNTVYLQMNSLKPEDTAVYYCNADYPFSYFTRLMDYWGQGTQVTVSS,low polyreactivity
5,QVQLVESGGGLVQAGGSLRLSCAASGFIFYIYAMGWYRQAPGKERELVAAITSGGSTYYADSVKGRFTISRDNAKNTVYLQMNSLKPEDTAVYFCAAESYYGYDYWGQGTQVTLSS,low polyreactivity
6,QVQLVESGGGLVQAGGSLRLSCAASGFIFYKNAMGWSRQAPGKEREFVAAITWSGGNTYYADSVKGRFTISRDNAKNTVYLQLNSLKPEETAVYYCAARDSKWGQGTQVTVSS,low polyreactivity
7,QVQLVESGGGLVQAGGSLRLSCAASGFIFYKNAMGWYRQAPGKERELVAAISASGVRTYYADSVKGRFTISRDNAKNTVYLQMNSLKPEDTAVYYSAADYTPEYYWGQGTQVTVSS,high polyreactivity
8,QVQLVESGGGLVQAGGSLRLSCAASGFIFYKYAMGWYRQAPGKERELVAAITASGGSTYYADSVKGRFTISRDNEKITVYLQMNSLKPEDTEVYFCAASRLFGFDYWGQGTQVTVSS,high polyreactivity
9,QVQLVESGGGLVQAGGSLRLSCAASGFIFYLYAMGWSRQAPGKERELVASINVSGASTRYADSVKGRFTISRDNAKNTVYLQMNSLKPEDTAVYYCAAPSRYDYWGQGTQVTVSS,low polyreactivity
10,QVQLVESGGGLVQAGGSLRLSCAASGFIFYNAMGWYRQAPGKESELVAAITGSGGRTYYADSVKGRFTISRDNAKNTVYLQMNSLKPEDTAVYYCAADGYVRTVTSGWALRMGYWGQGTQVTVSS,high polyreactivity
11,QVQLVESGGGLVQAGGSLRLSCAASGFIFYNYAMGWYRQAPGKERELVAAISKSGDSTYYADSVKGRFTISRDNAKNTVYLQMNSLKPEDTAVYYCNKEIVWHLWYESWGQGTQVTVSS,high polyreactivity
12,QVQLVESGGGLVQAGGSLRLSCAASGFIFYQYAMGWYRQAPGKERELVAAISTRGGSTYYADSVKGRFTISRDNAKNTVYLQMNSLKPEDTAVYYCAATVNARRVTRRYYWGQGTQVTVSS,high polyreactivity
13,QVQLVESGGGLVQAGGSLRLSCAASGFIFYQYAMGWYRQAPGKERELVAAITSRGGRTYYADSVKGRFTISRDNAKNTVYLQMNSLKPEDTAVYYCAVRKASDYYYWGQGTQVTVSS,high polyreactivity
14,QVQLVESGGGLVQAGGSLRLSCAASGFIFYRNAMGWYRQAPGKERELVAGISRSGTRTYYADSVKGRFTISRDYSKNTVYLQMNSLKPEDTAVYYCAADRSLGYDYWGQGTQVTVSS,high polyreactivity
15,QVQLVESGGGLVQAGGSLRLSCAASGFIFYRNPMGWYRQAPGKEREFVAAIRGRGGATYYADSVKGRFTISRDNAKITVYLQMNSLKREDTAVYYCAADTRPGYSGFEYWGQGTQVTVSS,high polyreactivity
16,QVQLVESGGGLVQAGGSLRLSCAASGFIFYRYAMGWYRQAPGKEREFVASISGSGGRTYFADSVKGRFTISRDNAKNTVYLQMNSLKPEDTAVYYCNVVSKSRISQYVGYSYDYWGQGTQVTVSS,high polyreactivity
17,QVQLVESGGGLVQAGGSLRLSCAASGFIFYRYAMGWYRQAPGKERELVATIRYSGGSTYYADSVKGRFTISRDNAKNTVYLQMNSLKPEDTAVYYCNARRRHPSVSRPPYDYWGQGTQVTVSS,high polyreactivity
18,QVQLVESGGGLVQAGGSLRLSCAASGFIFYRYTMGCYRQAPGKERELVAGISSRGTRTYYADSVKGRFTISRDNAKNTVYLQMNSLKPEDTAVYYCAKVDGSKRYNYWGQGTQVTVSS,high polyreactivity
19,QVQLVESGGGLVQAGGSLRLSCAASGFIFYSNAMGWYRQAPGKERELVAAISRGGGSTYYADSVKGRITISRDNAKNTVYLQMNSLIPVDTAVYYCAKRRLSPQDDYWGQGTQVTVSS,high polyreactivity
20,QVQLVESGGGLVQAGGSLRLSCAASGFIFYSNAMGWYRQAPGKERELVAAISRSGGSTYYADSVKGRFTISRDNAKNTVYLQMNSLKPEDTAVYYCNADYVYRRYGYWGQGSQVTVSS,high polyreactivity
21,QVQLVESGGGLVQAGGSLRLSCAASGFIFYSYAMGWYRQAPGKEREFVAAISRGGGRTYYADSVKGRFTISRDNAKNTVYLHMYSLKQEDTAVFYCATLPNGPHWPEYDYWGQGTQVTVSS,high polyreactivity
